B1: Pab21 H/ACA sRNA (structured_RNA)
RNA: GGGGAUGGGCCCGGCUCCCGCCCUCUCCGGGGAAUCGUGAACCGGGGGUUCCGGCCGGGCCUACAGU
B2: Pab91 H/ACA sRNA (structured_RNA)
RNA: GGGUAAUGCCCCUCCCCUCUCACACCUCCGGGAUCAGUGACCGGAGGGCGGUCGGGGAGGGGACACCU

Experiments:
[1] = molecular target: T1, L7Ae (Pyrococcus abyssi, UniProt P62008 1-123); test: footprinting (Pb2+); K-loop KTa/KTb protected; A34-U35 enhanced; EMSA: 150 mM KCl, 1.5 mM MgCl2, 0.2 mM EDTA, 20 mM HEPES pH 7.9, 65 C 10 min, 50 fmol sRNA, 200 nM proteins (Kd: 50-400 nM aCBF5); fluorescence: 300 mM NaCl, 25
[2] = molecular target: T1, L7Ae; test: footprinting (Pb2+); K-loop KTa/KTb protected; EMSA: 150 mM KCl, 1.5 mM MgCl2, 0.2 mM EDTA, 20 mM HEPES pH 7.9, 65 C 10 min, 50 fmol sRNA, 200 nM proteins (Kd: 50-400 nM aCBF5); fluorescence: 300 mM NaCl, 25

Binder | binding result [1] | binding result [2]
B1 | binds | 
B2 |  | binds
